target: lrp8_human LRP8 (UniProt Q14114)
UniProt Q14114, sequence (Q14114 whole entry): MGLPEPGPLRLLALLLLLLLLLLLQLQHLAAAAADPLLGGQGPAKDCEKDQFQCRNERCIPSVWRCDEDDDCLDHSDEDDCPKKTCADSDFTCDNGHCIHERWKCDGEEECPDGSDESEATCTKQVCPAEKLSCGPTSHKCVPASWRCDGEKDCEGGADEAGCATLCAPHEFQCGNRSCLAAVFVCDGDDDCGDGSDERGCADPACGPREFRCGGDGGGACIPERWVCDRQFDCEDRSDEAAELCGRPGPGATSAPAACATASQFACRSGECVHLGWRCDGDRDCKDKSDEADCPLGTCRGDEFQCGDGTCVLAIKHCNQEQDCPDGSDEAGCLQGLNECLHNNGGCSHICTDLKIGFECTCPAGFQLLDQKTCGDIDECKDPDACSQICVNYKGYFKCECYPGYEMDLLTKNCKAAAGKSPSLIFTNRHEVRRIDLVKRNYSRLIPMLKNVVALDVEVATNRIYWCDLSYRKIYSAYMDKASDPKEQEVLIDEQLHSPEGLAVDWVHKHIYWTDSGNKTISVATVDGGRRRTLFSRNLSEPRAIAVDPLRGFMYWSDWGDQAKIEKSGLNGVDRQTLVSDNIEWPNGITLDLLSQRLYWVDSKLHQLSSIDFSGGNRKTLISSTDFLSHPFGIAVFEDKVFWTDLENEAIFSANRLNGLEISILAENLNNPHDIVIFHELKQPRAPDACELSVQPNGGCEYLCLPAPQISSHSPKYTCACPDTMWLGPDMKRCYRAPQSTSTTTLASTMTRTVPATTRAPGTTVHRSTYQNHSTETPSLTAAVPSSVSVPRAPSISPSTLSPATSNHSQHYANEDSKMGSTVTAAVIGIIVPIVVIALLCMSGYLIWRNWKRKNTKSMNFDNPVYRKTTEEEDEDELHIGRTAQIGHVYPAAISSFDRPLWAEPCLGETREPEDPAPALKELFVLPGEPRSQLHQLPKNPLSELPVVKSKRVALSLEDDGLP

Substance	effect of a mutation on the interaction
Reelin (Mus musculus), Q60841 K2360A	disrupting interaction
Reelin (Mus musculus), Q60841 K2467A	disrupting interaction strength
Reelin (Mus musculus), Q60841 K2467R	disrupting interaction strength
